Molecular target: T1, purified full-length human AR (Abcam ab82609) (human, UniProt P10275 1-920)
T1 construct: androgen receptor, human, full length; also called Purified AR; AR polypeptide (ligand)
T1 sequence (looked up): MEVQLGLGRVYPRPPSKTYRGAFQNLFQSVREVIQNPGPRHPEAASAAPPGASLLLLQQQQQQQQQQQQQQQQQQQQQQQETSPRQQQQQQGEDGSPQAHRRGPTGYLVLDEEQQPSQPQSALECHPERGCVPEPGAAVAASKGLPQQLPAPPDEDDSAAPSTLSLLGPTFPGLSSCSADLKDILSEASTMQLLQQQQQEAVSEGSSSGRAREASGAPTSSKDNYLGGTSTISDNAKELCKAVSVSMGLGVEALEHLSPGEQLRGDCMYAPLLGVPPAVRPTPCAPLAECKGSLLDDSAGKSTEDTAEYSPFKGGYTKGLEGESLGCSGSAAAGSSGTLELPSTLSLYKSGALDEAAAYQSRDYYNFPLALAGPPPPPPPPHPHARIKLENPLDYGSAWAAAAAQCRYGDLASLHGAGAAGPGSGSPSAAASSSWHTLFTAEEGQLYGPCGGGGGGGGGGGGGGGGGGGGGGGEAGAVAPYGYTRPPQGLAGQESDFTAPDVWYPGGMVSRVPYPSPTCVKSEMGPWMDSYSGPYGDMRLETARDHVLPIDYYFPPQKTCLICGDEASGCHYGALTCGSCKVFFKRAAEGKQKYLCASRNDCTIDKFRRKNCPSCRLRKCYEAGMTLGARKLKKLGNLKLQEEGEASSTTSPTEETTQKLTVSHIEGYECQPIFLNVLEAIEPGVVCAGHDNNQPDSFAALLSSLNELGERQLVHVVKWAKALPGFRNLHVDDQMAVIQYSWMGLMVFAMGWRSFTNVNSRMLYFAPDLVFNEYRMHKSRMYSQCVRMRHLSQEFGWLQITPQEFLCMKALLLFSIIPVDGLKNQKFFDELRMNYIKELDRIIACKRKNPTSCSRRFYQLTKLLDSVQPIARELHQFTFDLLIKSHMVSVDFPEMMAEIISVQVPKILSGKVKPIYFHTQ
Assay: SPR; BIAcore 3000; AR immobilised on a CM5 chip by amine coupling; His-ELK1 (0-160 nM) or mutant ELK1 (100 nM) as analyte; HBS-N buffer; 1:1 Langmuir model; Kd = koff/kon
Details: both partners purified

B1: His-tagged ELK1 (natural protein, human, UniProt P19419 1-428, looked up)
chain: MDPSVTLWQFLLQLLREQGNGHIISWTSRDGGEFKLVDAEEVARLWGLRKNKTNMNYDKLSRALRYYYDKNIIRKVSGQKFVYKFVSYPEVAGCSTEDCPPQPEVSVTSTMPNVAPAAIHAAPGDTVSGKPGTPKGAGMAGPGGLARSSRNEYMRSGLYSTFTIQSLQPQPPPHPRPAVVLPSAAPAGAAAPPSGSRSTSPSPLEACLEAEEAGLPLQVILTPPEAPNLKSEELNVEPGLGRALPPEVKVEGPKEELEVAGERGFVPETTKAEPEVPPQEGVPARLPAVVMDTAGQAGGHAASSPEISQPQKGRKPRDLELPLSPSLLGGPGPERTPGSGSGSGLQAPGPALTPSLLPTHTLTPVLLTPSSLPPSIHFWSTLSPIAPRSPAKLSFQFPSSGSAQVHIPSISVDGLSTPVVLSPGPQKP
notes: ELK1, recombinant; Construct details are in the supplemental material; also called purified ELK1
Kd: 19 nM
